Laboratory results published in the supplement of paper PMC7125110.
± gives the standard error. For some of these results: Variants at the floor of the assay were thinned out.

B1: glmS ribozyme (parent)
chain: AUAAAAGCGCCAGAACUACAGAAAUGUAGUUGACGAGGAGGAGGUUUAUCGAAUUUUCGGCGGAUGCCUCCAAA

Experiments:
Settings in all cases: with glucosamine-6-phosphate
glucosamine-6-phosphate [1] = variants of: B1; assay: kcat; higher = faster cleavage; RNA array
How it was run: (§1)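 Barcoded ribozyme variants on sequenced MiSeq chips were transcribed in situ by E. coli RNA polymerase and followed at 37 °C through a hybridised Cy3 probe. Glucosamine-6-phosphate at 40 μM to 10 mM in HEPES/KCl/Mg(OAc)2 buffer was flowed in, and tiles were imaged over ~14 h. Signals were normalised to baseline and to non-cleaving reference variants, and per-tile medians were fit to one- or two-exponential decays to give kobs. Weighted Michaelis–Menten fits across concentrations gave kcat and KM.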

glucosamine-6-phosphate [2] = variants of: B1; assay: self-cleavage kobs at 640 uM GlcN6P; higher = faster cleavage; RNA array
How it was run: as §1

glucosamine-6-phosphate [3] = variants of: B1; assay: self-cleavage kobs at 2500 uM GlcN6P; higher = faster cleavage; RNA array
How it was run: as §1

glucosamine-6-phosphate [4] = variants of: B1; assay: self-cleavage kobs at 10000 uM GlcN6P; higher = faster cleavage; RNA array
How it was run: as §1

glucosamine-6-phosphate [5] = variants of: B1; assay: KM; higher = weaker cofactor use; RNA array
How it was run: as §1

glucosamine-6-phosphate [6] = variants of: B1; assay: self-cleavage kobs at 160 uM GlcN6P; higher = faster cleavage; RNA array
How it was run: as §1

glucosamine-6-phosphate [7] = variants of: B1; assay: self-cleavage kobs at 40 uM GlcN6P; higher = faster cleavage; RNA array
How it was run: as §1

U47G A53G U57C C68U
kcat (glucosamine-6-phosphate [1]): 9.73e-05 ± 3.2e-05 s⁻¹
self-cleavage kobs at 640 uM GlcN6P (glucosamine-6-phosphate [2]): 3.09e-05 ± 1.2e-05 s⁻¹
self-cleavage kobs at 2500 uM GlcN6P (glucosamine-6-phosphate [3]): 3.84e-05 ± 1.3e-05 s⁻¹
self-cleavage kobs at 10000 uM GlcN6P (glucosamine-6-phosphate [4]): 8.44e-05 ± 1.8e-05 s⁻¹

A52G C58A
kcat (glucosamine-6-phosphate [1]): 4.08e-05 ± 7.3e-06 s⁻¹
self-cleavage kobs at 2500 uM GlcN6P (glucosamine-6-phosphate [3]): 4.01e-05 ± 9.9e-06 s⁻¹
self-cleavage kobs at 10000 uM GlcN6P (glucosamine-6-phosphate [4]): 3.55e-05 ± 9.9e-06 s⁻¹

G38A U55C
kcat (glucosamine-6-phosphate [1]): < 1e-05 s⁻¹
KM (glucosamine-6-phosphate [5]): 37.7 ± 15 µM

C11A A14U
kcat (glucosamine-6-phosphate [1]): 9.91e-05 ± 4.5e-06 s⁻¹
KM (glucosamine-6-phosphate [5]): 947 ± 180 µM
self-cleavage kobs at 640 uM GlcN6P (glucosamine-6-phosphate [2]): 4.4e-05 ± 1e-05 s⁻¹
self-cleavage kobs at 2500 uM GlcN6P (glucosamine-6-phosphate [3]): 6.89e-05 ± 9.1e-06 s⁻¹
self-cleavage kobs at 10000 uM GlcN6P (glucosamine-6-phosphate [4]): 9.18e-05 ± 8.6e-06 s⁻¹

U30C U54G
kcat (glucosamine-6-phosphate [1]): 0.000209 ± 1.3e-05 s⁻¹
KM (glucosamine-6-phosphate [5]): 411 ± 120 µM
self-cleavage kobs at 160 uM GlcN6P (glucosamine-6-phosphate [6]): 9.02e-05 ± 4.2e-05 s⁻¹
self-cleavage kobs at 640 uM GlcN6P (glucosamine-6-phosphate [2]): 0.000118 ± 2.8e-05 s⁻¹
self-cleavage kobs at 2500 uM GlcN6P (glucosamine-6-phosphate [3]): 0.00018 ± 3.5e-05 s⁻¹
self-cleavage kobs at 10000 uM GlcN6P (glucosamine-6-phosphate [4]): 0.000203 ± 2.5e-05 s⁻¹

G44A A53U
kcat (glucosamine-6-phosphate [1]): 0.000232 ± 3.9e-05 s⁻¹
KM (glucosamine-6-phosphate [5]): 1820 ± 680 µM
self-cleavage kobs at 640 uM GlcN6P (glucosamine-6-phosphate [2]): 5.47e-05 ± 1.1e-05 s⁻¹
self-cleavage kobs at 2500 uM GlcN6P (glucosamine-6-phosphate [3]): 0.000174 ± 2.8e-05 s⁻¹
self-cleavage kobs at 10000 uM GlcN6P (glucosamine-6-phosphate [4]): 0.000182 ± 2.7e-05 s⁻¹

C10U C68G C70U
kcat (glucosamine-6-phosphate [1]): 7.35e-05 ± 2.9e-05 s⁻¹
self-cleavage kobs at 160 uM GlcN6P (glucosamine-6-phosphate [6]): 3.3e-05 ± 1.5e-05 s⁻¹
self-cleavage kobs at 640 uM GlcN6P (glucosamine-6-phosphate [2]): 0.00013 ± 2.8e-05 s⁻¹
self-cleavage kobs at 2500 uM GlcN6P (glucosamine-6-phosphate [3]): 5.98e-05 ± 1.4e-05 s⁻¹

C34G C67U
kcat (glucosamine-6-phosphate [1]): < 1e-05 s⁻¹
self-cleavage kobs at 640 uM GlcN6P (glucosamine-6-phosphate [2]): < 1e-05 s⁻¹

A12U U31C
kcat (glucosamine-6-phosphate [1]): 0.011 ± 0.0038 s⁻¹
KM (glucosamine-6-phosphate [5]): 2070 ± 880 µM
self-cleavage kobs at 40 uM GlcN6P (glucosamine-6-phosphate [7]): 0.000254 ± 4.3e-05 s⁻¹
self-cleavage kobs at 160 uM GlcN6P (glucosamine-6-phosphate [6]): 0.000727 ± 0.00017 s⁻¹
self-cleavage kobs at 640 uM GlcN6P (glucosamine-6-phosphate [2]): 0.00178 ± 0.00062 s⁻¹
self-cleavage kobs at 10000 uM GlcN6P (glucosamine-6-phosphate [4]): 0.0101 ± 0.0026 s⁻¹

G40A A48G
kcat (glucosamine-6-phosphate [1]): 4.48e-05 ± 1.1e-05 s⁻¹
self-cleavage kobs at 40 uM GlcN6P (glucosamine-6-phosphate [7]): < 1e-05 s⁻¹
self-cleavage kobs at 2500 uM GlcN6P (glucosamine-6-phosphate [3]): 4.6e-05 ± 7.9e-06 s⁻¹
self-cleavage kobs at 10000 uM GlcN6P (glucosamine-6-phosphate [4]): 3.71e-05 ± 7.6e-06 s⁻¹

G32U U47A
kcat (glucosamine-6-phosphate [1]): 0.000688 ± 0.00026 s⁻¹
self-cleavage kobs at 160 uM GlcN6P (glucosamine-6-phosphate [6]): 5.78e-05 ± 1.8e-05 s⁻¹
self-cleavage kobs at 640 uM GlcN6P (glucosamine-6-phosphate [2]): 8.3e-05 ± 2e-05 s⁻¹
self-cleavage kobs at 2500 uM GlcN6P (glucosamine-6-phosphate [3]): 0.000375 ± 0.00014 s⁻¹
self-cleavage kobs at 10000 uM GlcN6P (glucosamine-6-phosphate [4]): 0.000493 ± 0.00011 s⁻¹

C16G U45A
kcat (glucosamine-6-phosphate [1]): 0.0107 ± 0.0033 s⁻¹
KM (glucosamine-6-phosphate [5]): 2340 ± 1100 µM
self-cleavage kobs at 40 uM GlcN6P (glucosamine-6-phosphate [7]): 0.000245 ± 3.1e-05 s⁻¹
self-cleavage kobs at 160 uM GlcN6P (glucosamine-6-phosphate [6]): 0.00048 ± 0.00013 s⁻¹
self-cleavage kobs at 640 uM GlcN6P (glucosamine-6-phosphate [2]): 0.00226 ± 0.00044 s⁻¹
self-cleavage kobs at 2500 uM GlcN6P (glucosamine-6-phosphate [3]): 0.00423 ± 0.00082 s⁻¹
self-cleavage kobs at 10000 uM GlcN6P (glucosamine-6-phosphate [4]): 0.0101 ± 0.0013 s⁻¹

G63A C68G
kcat (glucosamine-6-phosphate [1]): 1.26e-05 ± 3.4e-06 s⁻¹

A52U C68U
kcat (glucosamine-6-phosphate [1]): 0.000287 ± 4.1e-06 s⁻¹
KM (glucosamine-6-phosphate [5]): 2080 ± 62 µM
self-cleavage kobs at 160 uM GlcN6P (glucosamine-6-phosphate [6]): 1.96e-05 ± 8.9e-06 s⁻¹
self-cleavage kobs at 640 uM GlcN6P (glucosamine-6-phosphate [2]): 6.72e-05 ± 8.8e-06 s⁻¹
self-cleavage kobs at 2500 uM GlcN6P (glucosamine-6-phosphate [3]): 0.000158 ± 1.4e-05 s⁻¹
self-cleavage kobs at 10000 uM GlcN6P (glucosamine-6-phosphate [4]): 0.000236 ± 2.4e-05 s⁻¹

A6C A15C
kcat (glucosamine-6-phosphate [1]): 3.27e-05 ± 1.8e-06 s⁻¹

G41U U45C
kcat (glucosamine-6-phosphate [1]): 0.000379 ± 2.8e-05 s⁻¹
KM (glucosamine-6-phosphate [5]): 1140 ± 210 µM
self-cleavage kobs at 160 uM GlcN6P (glucosamine-6-phosphate [6]): 4.06e-05 ± 1.5e-05 s⁻¹
self-cleavage kobs at 640 uM GlcN6P (glucosamine-6-phosphate [2]): 0.000157 ± 4e-05 s⁻¹
self-cleavage kobs at 2500 uM GlcN6P (glucosamine-6-phosphate [3]): 0.000273 ± 5.6e-05 s⁻¹
self-cleavage kobs at 10000 uM GlcN6P (glucosamine-6-phosphate [4]): 0.000331 ± 4.7e-05 s⁻¹

A39C G66U
kcat (glucosamine-6-phosphate [1]): 0.00114 ± 0.00017 s⁻¹
KM (glucosamine-6-phosphate [5]): 3090 ± 910 µM
self-cleavage kobs at 160 uM GlcN6P (glucosamine-6-phosphate [6]): 8.13e-05 ± 2.3e-05 s⁻¹
self-cleavage kobs at 640 uM GlcN6P (glucosamine-6-phosphate [2]): 0.000198 ± 3.9e-05 s⁻¹
self-cleavage kobs at 2500 uM GlcN6P (glucosamine-6-phosphate [3]): 0.000424 ± 8.2e-05 s⁻¹
self-cleavage kobs at 10000 uM GlcN6P (glucosamine-6-phosphate [4]): 0.000908 ± 9.9e-05 s⁻¹
